In patent publication US12241094B2, “Phenazine degrading agents and related compositions, methods and systems for interfering with viability of bacteria” (priority 2016, dated 2025):

Tests used:
Pa PA14 biofilm = assay: Biofilm biomass by DAPI intensity (Example 7); format: cell-based, P. aeruginosa
Description: In this example, to check for an effect of PodA or 1-OH-PHZ on biofilm development, Pa PA14 was grown in 8-well chambered microscope slides designed for biofilm imaging, as previously reported (Das et al. (2015) Sci Rep. 5:8398). Overnight cultures of Pa PA14 were diluted to a starting optical density of 0.25 and grown directly on the slides (volume of 250 μl per chamber). After 5 h incubation at 37° C., planktonic cells were rinsed from the slide and remaining cells were stained with DAPI. Biofilm biomass was quantified by DAPI intensity on a Leica confocal microscope, with LAS X software. Pa PA14 incubated in the presence of 1 μM PodA or 100 μM 1-OHPHZox had ˜50% the biofilm biomass of Pa PA14 alone (FIG. 20A).

[1] = PYO demethylation in the presence of DNA; format: biochemical; settings: gDNA pellet, 2 μg mL^−1, 3 hours
Description: Biofilm experiments. For all experiments involving inactivated PodA, either the E154A mutant or PodA30-162 that was subjected to a 1 hour treatment at 98° C. was used. To test the ability of PodA30-162 to degrade PYO in the presence of DNA, genomic DNA (gDNA) from P. aeruginosa PA14 was used in modified versions of previously described assays (59). For experiments using DNA pellets, 0.5 mg of gDNA was pelleted in the presence of 300 mM sodium acetate, pH 5.2 and 70% ethanol. Pellets were washed with 70% ethanol and dried. 200 μL of 800 μM PYO was added to the gDNA pellet without mixing and left to sit at room temperature for 6 hours to allow for diffusion of PYO into the gDNA pellet. The pellet was washed once with 70% EtOH, and submerged in a solution containing 10 mM Tris, pH 7.0 and 40% isopropanol. The pellet remained blue, consistent with an association of PYO with DNA. PodA30-162 was added to the isopropanol solution to a final concentration of 2 μg mL^−1 and left to sit for 3 hours to allow for the reaction to proceed. Tubes were imaged before and after PodA30-162 treatment. […] The PYO gDNA mixture was amended with 1 μg mL^−1 PodA30-162 and loss of PYO was monitored on a BioTek Synergy 4 microplate reader (BioTek) plate reader at 690 nm. Standards were included to quantify PYO loss over time. […]

B1: PodA30-162: truncated pyocyanin demethylase encoded by MFORT_14352 of Mycobacterium fortuitum lacking N-terminal helix, SEQ ID NO: 2 (protein, listed as Mycobacterium fortuitum)
chain: MDGRGGRSTTEPVTMTLDVKNDQVAKHDFGKPGMDVGDMDIFSDILSVDGKQVGYDGGACFFTNVTPDNPMTYCELTIHLDAGEIFARSLTPHTLAPFTMAITGGTGEYANSKGELTVSGVATPDEKYELKLTKAENLYFQ
In the case of B1, the “biofilm biomass relative to Pa PA14 alone” value (Pa PA14 biofilm; 1 μM PodA or 100 μM 1-OHPHZox, 5 h at 37° C) is reported as about 50%, the “biofilm formation compared to untreated control” value (Pa PA14 biofilm; PodA 1 μM, 1-OH-PHZ 100 μM, total DAPI staining) is reported as “inhibit biofilm formation” and the “demethylation of PYO associated with precipitated DNA” value [1] is reported as “not protected”.
